25 sequences from the supplement of paper PMC9732359 can be followed below.

± gives the uncertainty stated by the source.

The nature of the data set: protein stability index of a GFP-peptide fusion (yeast GPS) (PSI 1-4); higher = more stable; sorted into four equal gates, so the index is relative within each strain. In short, it runs like this: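 Tiled 17-residue peptides from yeast proteins were fused downstream of GFP on a plasmid that also expresses Cherry, and the pooled library was carried in yeast. Mid-log cultures grown in leucine-free medium were sorted into four equal gates by GFP/Cherry fluorescence ratio. Plasmids from each gate were PCR-amplified and Illumina-sequenced, and reads were assigned to strains by barcodes. Each peptide's protein stability index is the sum, over gates, of the gate's read frequency multiplied by its gate number.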

Consider HPGFGCWLSSVDVNTQK [RPN11], for which the protein stability index is 1.25 ± 0.23 (doa10∆) and 1.25 ± 0.24 (pdr5∆).

On to HPQDFGNPGRIRVLFKE [SEC65], for which the protein stability index is, setting by setting: (doa10∆) 2.91 ± 0.077; (pdr5∆) 2.94 ± 0.11; (san1∆) 3.13 ± 0.065; (ubr1∆) 3.11 ± 0.061.

For HQFHDILEEKTDLHLPK [NSL1], the protein stability index is, setting by setting: (doa10∆) 2.35 ± 0.07; (pdr5∆) 2.29 ± 0.065; (san1∆) 2.27 ± 0.076; (ubr1∆) 2.38 ± 0.054.

As to HRLLQRALFRQLKRWYW [RMP1], the protein stability index runs as follows: (doa10∆) 2.29 ± 0.18; (pdr5∆) 1.2 ± 0.12; (san1∆) 1.22 ± 0.17; (ubr1∆) 1.35 ± 0.11.

Consider HRSKKDQDQYLEIAKDF [IRR1], for which the protein stability index runs as follows: (doa10∆) 3.15 ± 0.14; (pdr5∆) 3.21 ± 0.12; (san1∆) 3.04 ± 0.13; (ubr1∆) 3.6 ± 0.27.

Consider HSGELMRQQSKELQQLQ [SMC1], for which the protein stability index is 2.89 ± 0.15 (doa10∆), 2.98 ± 0.13 (pdr5∆), 2.9 ± 0.11 (san1∆) and 2.7 ± 0.27 (ubr1∆).

In the case of HSISEAENMLEELRGQQ [SMC4], the protein stability index (doa10∆) stood at 3.27 ± 0.094, the protein stability index (pdr5∆) turned out to be 2.52 ± 0.18, the protein stability index (san1∆) was 3.35 ± 0.068 and the protein stability index (ubr1∆) is 3.2 ± 0.079.

As for HSNLEKISNSKLLSLLR [SIR4], the protein stability index (doa10∆) is 2.4 ± 0.063, the protein stability index (pdr5∆) worked out at 2.65 ± 0.052, the protein stability index (san1∆) is 2.5 ± 0.051 and the protein stability index (ubr1∆) is 2.48 ± 0.047.

Consider HTPMVNFESISARSSVH [SRB8], for which the protein stability index came to 2.08 ± 0.043 (doa10∆), 1.97 ± 0.032 (pdr5∆), 1.79 ± 0.051 (san1∆) and 2.12 ± 0.025 (ubr1∆).

As for HTQDIIGGMRVDENGDP [RET1], the protein stability index reads like this: (doa10∆) 3.2 ± 0.084; (pdr5∆) 3.32 ± 0.073; (san1∆) 3.17 ± 0.055; (ubr1∆) 3.37 ± 0.054.

Take HTSSNSREIAQPSSSRY [SMB1]: the protein stability index reads like this: (doa10∆) 3.17 ± 0.11; (pdr5∆) 2.97 ± 0.065; (san1∆) 3.02 ± 0.054; (ubr1∆) 3.22 ± 0.058.

Consider HVKVNDKKEMTIYNNIR [SIR3], for which the protein stability index was 3.04 ± 0.052 (doa10∆), 2.91 ± 0.062 (pdr5∆), 2.87 ± 0.04 (san1∆) and 3.228 ± 0.032 (ubr1∆).

Regarding HVPEKKSTDLTPKGNES [MTR3], the protein stability index reads like this: (doa10∆) 2.97 ± 0.12; (pdr5∆) 2.43 ± 0.13; (san1∆) 2.66 ± 0.084; (ubr1∆) 3.11 ± 0.096.

In turn, HWNLPGERIFNKIRNLE [SIR2] gave a protein stability index (doa10∆) of 3.3 ± 0.098, a protein stability index (pdr5∆) of 3.23 ± 0.097, a protein stability index (san1∆) of 3.2 ± 0.056 and a protein stability index (ubr1∆) of 3.29 ± 0.068.

Take IAAGTYGKVYKAKRQIN [SSN3]: the protein stability index worked out at 1.68 ± 0.061 (doa10∆), 2.03 ± 0.043 (pdr5∆), 2.24 ± 0.068 (san1∆) and 2.29 ± 0.048 (ubr1∆).

In turn, IAFDDLIENKIQNKKIQ [RPN8] displayed a protein stability index (doa10∆) of 2.54 ± 0.07, a protein stability index (pdr5∆) of 2.25 ± 0.081, a protein stability index (san1∆) of 2.57 ± 0.066 and a protein stability index (ubr1∆) of 2.71 ± 0.05.

Regarding IAIAGTGQIEGLLDYMR [COR1], the protein stability index runs as follows: (doa10∆) 3.37 ± 0.088; (pdr5∆) 3.54 ± 0.081; (san1∆) 3.17 ± 0.061; (ubr1∆) 3.15 ± 0.057.

Consider IAKLSVIPIRRGYWGTN [RPS2], for which the protein stability index is 2.02 ± 0.073 (doa10∆), 1.67 ± 0.11 (pdr5∆), 1.93 ± 0.19 (san1∆) and 1.76 ± 0.12 (ubr1∆).

In the case of IALGEDIGKEMSLRHFG [RPN1], the protein stability index is 3.2 ± 0.088 (doa10∆), 3.07 ± 0.11 (pdr5∆), 2.55 ± 0.2 (san1∆) and 3.34 ± 0.14 (ubr1∆).

For the sequence IALNLDTTVNDCLDKLL [SNF2], the protein stability index reads like this: (doa10∆) 2.54 ± 0.14; (pdr5∆) 3.06 ± 0.14; (san1∆) 2.65 ± 0.1; (ubr1∆) 2.9 ± 0.073.

IAMPKRRMAFKPFGSAK [YLR335W/NUP2]: the protein stability index reads like this: (doa10∆) 2.86 ± 0.052; (pdr5∆) 3.09 ± 0.064; (san1∆) 3.11 ± 0.043; (ubr1∆) 2.73 ± 0.044.

IANMVLPPEKIYSPLHS [SIR2]: the protein stability index is 1.54 ± 0.035 (doa10∆), 1.99 ± 0.036 (pdr5∆), 1.73 ± 0.05 (san1∆) and 1.67 ± 0.032 (ubr1∆).

IASTLGPSAMRLSRCIR [RPC82]: the protein stability index (doa10∆) was 1.84 ± 0.089, the protein stability index (pdr5∆) was determined as 2.46 ± 0.08, the protein stability index (san1∆) was 1.81 ± 0.083 and the protein stability index (ubr1∆) was found to be 2.4 ± 0.055.

As for IAYSDSQSSNANICLTF [SIN4], the protein stability index came out at 2.74 ± 0.1 (doa10∆), 2.7 ± 0.065 (pdr5∆), 2.38 ± 0.081 (san1∆) and 2.89 ± 0.069 (ubr1∆).

IDEIAYLFHNDRIIHTW [ECM29]: the protein stability index is, setting by setting: (doa10∆) 1.4 ± 0.049; (pdr5∆) 1.43 ± 0.054; (san1∆) 1.3 ± 0.081; (ubr1∆) 1.66 ± 0.043.
